# Positions count from the first letter of the chain named.
# B1: DGL869 (bispecific antibody)
# chain 1: not shown
# chain 2: EVQLLESGGGLVQPGGSLRLSCAASGFTFSDYYMTWIRQAPGKGLEWVSSISGGSTYYADSRKGRFTISRDNSENTLYLQMNSLRAEDTAVYYCARDFGVAGWFGQYGMDVWGQGTLVTVSSGGGGSGGGGSGGGGSQSVLTQPPSASGTPGQRVTISCTGSSSNIGAGYDVHWYQQLPGTAPKLLIYRSNQRPSGVPDRFSGSKSGTSASLAISGLRSEDEADYYCSSYAGNYNLVFGGGTKLTVLDKTHTCPPCPAPEAAGAPSVFLFPPKPKDTLMISRTPEVTCVVVDVSHEDPEVKFNWYVDGVEVHNAKTKPREEQYNSTYRVVSVLTVLHQDWLNGKEYKCKVSNKALPAPIEKTISKAKGQPREPQVCTLPPSRDELTKNQVSLSCAVKGFYPSDIAVEWESNGQPENNYKTTPPVLDSDGSFFLVSKLTVDKSRWQQGNVFSCSVMHEALHNHYTQKSLSLSPGWSHPQFEK
# B2: DGL878 (bispecific antibody)
# chain 1: not shown
# chain 2: B1 chain 2 with S195A
# B3: DGL870 (bispecific antibody)
# chain 1: not shown
# chain 2: B1 chain 2
# B4: DGL876 (bispecific antibody)
# chain 1: not shown
# chain 2: B1 chain 2
# B5: DGL873 (bispecific antibody)
# chain 1: not shown
# chain 2: B1 chain 2
# B6: DGL874 (bispecific antibody)
# chain 1: not shown
# chain 2: B1 chain 2
# B7: DGL879 (bispecific antibody)
# chain 1: not shown
# chain 2: B1 chain 2 with N233L
# B8: DGL872 (bispecific antibody)
# chain 1: not shown
# chain 2: B1 chain 2
# B9: DGL871 (bispecific antibody)
# chain 1: not shown
# chain 2: B1 chain 2
# B10: DGL877 (bispecific antibody)
# chain 1: not shown
# chain 2: B1 chain 2 with S163A
# B11: DGL875 (bispecific antibody)
# chain 1: not shown
# chain 2: B1 chain 2
# B12: DGL880 (bispecific antibody)
# chain 1: not shown
# chain 2: B1 chain 2 with S163A, S195A, N233L
# B13: DGL945 (bispecific antibody, human IgG1, lambda)
# heavy: EVQLLESGGGLVQPGGSLRLSCAASGFTFSDYYMTWIRQAPGKGLEWVSSISGGSTYYADSRKGRFTISRDNSENTLYLQMNSLRAEDTAVYYCARDFGVAGWFGQYGMDVWGQGTLVTVSSPLAPEVQLLESGGGLVQPGGSLRLSCAASGFTFSSYAMSWVRQAPGKGLEWVANINQDGSEKNYVDSMRGRFTISRDNSKNTLYLQMNSLRAEDTAVYYCAREFDYWGQGTLVTVSSASTKGPSVFPLAPSSKSTSGGTAALGCLVKDYFPEPVTVSWNSGALTSGVHTFPAVLQSSGLYSLSSVVTVPSSSLGTQTYICNVNHKPSNTKVDKKVEPKSCDKTHTCPPCPAPEAAGAPSVFLFPPKPKDTLYITREPEVTCVVVDVSHEDPEVKFNWYVDGVEVHNAKTKPREEQYNSTYRVVSVLTVLHQDWLNGKEYKCKVSNKALPAPIEKTISKAKGQPREPQVYTLPPSRDELTKNQVSLTCLVKGFYPSDIAVEWESNGQPENNYKTTPPVLDSDGSFFLYSKLTVDKSRWQQGNVFSCSVMHEALHNHYTQKSLSLSPG
# light: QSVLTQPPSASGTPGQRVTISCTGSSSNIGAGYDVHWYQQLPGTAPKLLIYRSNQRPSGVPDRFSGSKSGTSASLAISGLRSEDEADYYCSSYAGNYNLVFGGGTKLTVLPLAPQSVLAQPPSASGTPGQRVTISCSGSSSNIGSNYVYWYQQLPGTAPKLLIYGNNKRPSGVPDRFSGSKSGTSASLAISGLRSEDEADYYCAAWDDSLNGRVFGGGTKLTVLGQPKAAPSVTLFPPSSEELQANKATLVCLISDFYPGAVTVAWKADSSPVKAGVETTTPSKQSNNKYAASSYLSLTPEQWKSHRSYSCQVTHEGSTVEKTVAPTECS
# B14: DGL1146 (bispecific antibody, human IgG1, lambda)
# heavy: B13 heavy with Y374M, T376S, E378T, M550L, N556S
# light: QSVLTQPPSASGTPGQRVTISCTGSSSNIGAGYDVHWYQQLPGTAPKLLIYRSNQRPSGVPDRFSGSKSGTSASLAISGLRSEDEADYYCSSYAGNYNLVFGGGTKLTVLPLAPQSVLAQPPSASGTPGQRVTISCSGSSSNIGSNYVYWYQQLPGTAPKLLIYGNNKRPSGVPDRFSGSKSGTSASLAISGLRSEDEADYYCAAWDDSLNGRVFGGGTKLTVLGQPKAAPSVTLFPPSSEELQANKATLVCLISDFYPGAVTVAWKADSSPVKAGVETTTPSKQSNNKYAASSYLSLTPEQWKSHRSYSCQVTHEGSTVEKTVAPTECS
# B15: DGL947 (bispecific antibody, human IgG1, lambda)
# heavy: B13 heavy with T35N, R62V, Y107F, A159W, N185Y, F226Y
# light: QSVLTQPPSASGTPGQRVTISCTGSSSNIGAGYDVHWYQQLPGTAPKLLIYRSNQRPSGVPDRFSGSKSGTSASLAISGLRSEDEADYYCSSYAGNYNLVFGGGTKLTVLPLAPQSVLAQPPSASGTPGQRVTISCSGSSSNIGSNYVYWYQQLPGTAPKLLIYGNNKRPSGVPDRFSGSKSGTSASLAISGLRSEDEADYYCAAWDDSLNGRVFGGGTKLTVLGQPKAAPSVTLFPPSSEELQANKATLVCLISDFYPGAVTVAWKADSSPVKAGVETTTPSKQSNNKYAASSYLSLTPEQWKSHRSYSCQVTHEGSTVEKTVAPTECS
# B16: DGL949 (bispecific antibody, human IgG1, lambda)
# heavy: B13 heavy with T35N, R62V, Q106Y, A159W, N178K, Y228F
# light: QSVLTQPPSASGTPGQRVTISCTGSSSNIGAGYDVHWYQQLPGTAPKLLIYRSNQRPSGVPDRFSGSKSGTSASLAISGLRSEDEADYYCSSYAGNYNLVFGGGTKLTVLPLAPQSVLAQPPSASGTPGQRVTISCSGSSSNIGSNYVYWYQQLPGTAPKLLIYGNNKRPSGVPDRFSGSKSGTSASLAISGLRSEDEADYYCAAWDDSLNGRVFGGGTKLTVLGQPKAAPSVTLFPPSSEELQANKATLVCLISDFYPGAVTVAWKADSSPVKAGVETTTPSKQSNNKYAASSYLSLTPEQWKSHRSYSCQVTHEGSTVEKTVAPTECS
# Target: T1, ALK-1/BMPR-2 receptor pair of the PathHunter U2Os dimerization cells (DiscoverX 93-0962C3) (UniProt P37023 22-503; Q13873 27-1038)
# Assay: cell-based or functional assay
% Emax BMP9 [%],Emax (RLU),Binder
56,1.44e+06,B1
73,1.88e+06,B2
56,1.42e+06,B3
61,1.57e+06,B4
60,1.55e+06,B5
61,1.56e+06,B6
71,1.81e+06,B7
57,1.46e+06,B8
62,1.59e+06,B9
76,1.95e+06,B10
65,1.66e+06,B11
66,1.68e+06,B12

# Target: T1, ALK-1/BMPR-2 receptor pair of the …
# Assay: cell-based or functional assay
# Remark: another data set of the same source
# Target sequence in this assay (P37023 22-503, chain 1 of 2): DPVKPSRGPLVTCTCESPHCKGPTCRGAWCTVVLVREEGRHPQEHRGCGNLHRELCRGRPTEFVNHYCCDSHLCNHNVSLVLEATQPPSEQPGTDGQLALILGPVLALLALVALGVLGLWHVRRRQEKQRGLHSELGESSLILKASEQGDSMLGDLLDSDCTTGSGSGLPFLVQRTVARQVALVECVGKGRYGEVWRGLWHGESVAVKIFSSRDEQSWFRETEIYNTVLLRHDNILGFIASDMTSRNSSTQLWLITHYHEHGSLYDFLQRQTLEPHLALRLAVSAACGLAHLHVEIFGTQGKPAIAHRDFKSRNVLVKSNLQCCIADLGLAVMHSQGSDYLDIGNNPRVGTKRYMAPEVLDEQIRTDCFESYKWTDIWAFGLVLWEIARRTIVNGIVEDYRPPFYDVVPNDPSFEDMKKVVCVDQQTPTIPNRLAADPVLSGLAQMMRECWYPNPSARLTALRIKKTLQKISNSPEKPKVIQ
# Target sequence in this assay (Q13873 27-1038, chain 2 of 2): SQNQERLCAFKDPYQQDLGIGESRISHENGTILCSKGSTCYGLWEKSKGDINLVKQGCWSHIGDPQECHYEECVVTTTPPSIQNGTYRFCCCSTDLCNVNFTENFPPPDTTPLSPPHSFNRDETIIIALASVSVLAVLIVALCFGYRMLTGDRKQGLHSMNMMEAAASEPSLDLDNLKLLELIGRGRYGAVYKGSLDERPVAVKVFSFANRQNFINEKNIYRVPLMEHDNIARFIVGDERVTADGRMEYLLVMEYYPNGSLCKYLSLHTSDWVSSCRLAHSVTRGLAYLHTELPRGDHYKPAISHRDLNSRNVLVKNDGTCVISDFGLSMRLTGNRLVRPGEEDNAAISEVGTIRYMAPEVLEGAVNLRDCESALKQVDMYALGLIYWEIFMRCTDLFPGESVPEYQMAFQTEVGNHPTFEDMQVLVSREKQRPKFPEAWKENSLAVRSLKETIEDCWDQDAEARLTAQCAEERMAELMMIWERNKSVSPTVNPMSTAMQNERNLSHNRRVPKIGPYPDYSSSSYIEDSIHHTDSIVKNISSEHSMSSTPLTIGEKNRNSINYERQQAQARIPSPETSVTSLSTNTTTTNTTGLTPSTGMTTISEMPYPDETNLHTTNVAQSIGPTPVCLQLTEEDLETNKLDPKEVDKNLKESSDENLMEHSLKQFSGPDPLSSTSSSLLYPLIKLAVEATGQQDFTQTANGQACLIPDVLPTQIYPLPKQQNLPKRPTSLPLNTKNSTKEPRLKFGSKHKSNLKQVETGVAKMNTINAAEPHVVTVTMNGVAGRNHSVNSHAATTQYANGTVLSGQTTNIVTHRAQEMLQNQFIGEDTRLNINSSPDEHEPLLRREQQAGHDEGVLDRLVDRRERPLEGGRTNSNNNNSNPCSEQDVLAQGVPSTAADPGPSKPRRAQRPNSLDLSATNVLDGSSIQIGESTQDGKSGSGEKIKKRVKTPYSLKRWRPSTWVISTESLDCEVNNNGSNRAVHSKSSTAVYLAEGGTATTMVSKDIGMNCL
row,% Emax BMP9 [%],Binder
1,78,B13
2,78,B14
3,47,B15
4,42,B16

# From US20250002588A1 (DIAGONAL THERAPEUTICS, published 2025)
